Source: paper PMC11057775, “Structural characterization of two nanobodies targeting the ligand-binding pocket of human Arc” (PLOS ONE, 2024)
Where no end group is shown, it is not given here.

B1: FITC-labelled, TAT-tagged TARPγ2 peptide (forward peptide P1) (peptide)
peptide: YGRKKRRQRRRGGRIPSYRYR
modifications: also: FITC label, position not given here
notes: stretch of the transmembrane AMPAR regulatory protein γ2 (TARPγ2, stargazin); the split into TAT, linker and TARPγ2 stretch is mine; also called TARPγ2-derived peptide; source: synthetic peptide, bought: GenScript Biotech
B2: anti-Arc nanobody E5 (VHH)
VHH: EVQLQESGGGLVQAGGSLRLSCAASGSIFSGNAMGWYRQAPGKQREVVAVISAGNSSNYVDSVKGRFTISRDNAKNTVYLQMNSLKPEDTAVYYCNVVKRGPQWGMEWGKGTLVTVSS
notes: alpaca nanobody; 12.8 kDa as printed; provided by Nanotag Biotechnologies in the vector pNT1433 (His6-TEV-E5); CDR3 holds a PxW motif; source: E. coli BL21(DE3), purified (Ni-NTA, tag cleavage, reverse Ni-NTA, SEC); not shown: His6, N-terminal, cleaved
B3: anti-Arc nanobody H11 (VHH)
VHH: EVQLLESGGGLVQAGDSLRLSCAASGRTFSAYAMGWFRQAPGKEREFVAAISWSGNSTYYADSVKGRFTISRDNAKNTVYLQMNSLKPEDTAIYYCAARKPMYRVDISKGQNYDYWGQGTQVTVSS
notes: alpaca nanobody; 14.1 kDa as printed; provided by Nanotag Biotechnologies in the vector pNT1433 (His6-TEV-H11); CDR3 holds a PxY motif; source: E. coli BL21(DE3), purified (Ni-NTA, tag cleavage, reverse Ni-NTA, SEC); not shown: His6, N-terminal, cleaved
B4: full-length rat Arc with a poly-Ala mutation in residues 113-119 (rArcFL-7A) (natural protein, UniProt Q63053 1-396, looked up)
chain: MELDHMTTGGLHAYPAPRGGPAAKPNVILQIGKCRAEMLEHVRRTHRHLLTEVSKQVERELKGLHRSVGKLENNLDGYVPTGDSQRWKKSIKACLCRCQETIANLERWVKREAAAAAAAFYRLERWADRLESMGGKYPVGSEPARHTVSVGVGGPEPYCQEADGYDYTVSPYAITPPPAAGELPEQESVGAQQYQSWVPGEDGQPSPGVDTQIFEDPREFLSHLEEYLRQVGGSEEYWLSQIQNHMNGPAKKWWEFKQGSVKNWVEFKKEFLQYSEGTLSREAIQRELDLPQKQGEPLDQFLWRKRDLYQTLYVDAEEEEIIQYVVGTLQPKFKRFLRHPLPKTLEQLIQRGMEVQDGLEQAAEPSVTPLPTEDETEALTPALTSESVASDRTQPE
notes: Activity-regulated cytoskeleton-associated protein (Arc), rat, full length, residues 113-119 replaced by alanines; expressed with an N-terminal His6-MBP fusion in pHMGWA; also called flArc dimeric mutant; dimeric full-length Arc; not shown: His6, N-terminal, cleaved; MBP, N-terminal, cleaved

What was measured:
[1] = target: T1, Arc N-lobe (Arc-NL, Arc 207-277) (human, UniProt Q7LC44 207-277); test: ITC; 2 mM P1 (titrant) into 200 μM Arc-NL (titrate), TBS, 20 °C, three sequential titrations concatenated, 1:1 binding model, one replicate; conditions: both partners purified
T1 construct: Activity-regulated cytoskeleton-associated protein (Arc), N-lobe, residues 207-277; identical for human, rat and mouse Arc-NL; construct His6-MBP-TEV-NL in pETMBP_1a; 8.9 kDa as printed; also called human Arc N-lobe; source: E. coli BL21(DE3), purified (Ni-NTA, tag cleavage, reverse Ni-NTA, SEC); not shown: His6, N-terminal, cleaved; MBP, N-terminal, cleaved
T1 sequence (looked up): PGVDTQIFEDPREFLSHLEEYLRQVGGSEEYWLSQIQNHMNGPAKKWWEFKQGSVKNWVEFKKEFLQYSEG

[2] = target: T2, Arc N-lobe (Arc-NL, Arc 207-277) (human, UniProt Q7LC44); test: ITC; displacement assay: 100 μM E5/H11 (titrant) into 10 μM Arc-NL saturated with 100 μM P1, TBS, 20 °C; apparent constants, one replicate; conditions: both partners purified
T2 construct: Activity-regulated cytoskeleton-associated protein (Arc), N-lobe, residues 207-277; identical for human, rat and mouse Arc-NL; construct His6-MBP-TEV-NL in pETMBP_1a; 8.9 kDa as printed; also called human Arc N-lobe; source: E. coli BL21(DE3), purified (Ni-NTA, tag cleavage, reverse Ni-NTA, SEC); not shown: His6, N-terminal, cleaved; MBP, N-terminal, cleaved

[3] = target: T2, Arc N-lobe (Arc-NL, Arc 207-277); test: ITC; 15 μM E5/H11 (titrant) into 1.5 μM Arc-NL (titrate), TBS (20 mM Tris-HCl pH 7.5, 150 mM NaCl), 20 °C, 1:1 binding model, four replicates; conditions: both partners purified
[4] = target: T3, full-length rat Arc with a poly-Ala mutation in residues 113-119 (rArcFL-7A) (rat, UniProt Q63053, poly-Ala mutation in residues 113-119); test: SEC-MALS + other: SEC-SAXS; rArcFL-7A alone and with E5, C11 or both; 20 mM Tris pH 7.5, 150 mM NaCl, 0.5 mM TCEP; 1:1.3 protein-to-nanobody ratio for SAXS; conditions: both partners purified
T3 construct: Activity-regulated cytoskeleton-associated protein (Arc), rat, full length, residues 113-119 replaced by alanines; expressed with an N-terminal His6-MBP fusion in pHMGWA; also called flArc dimeric mutant; dimeric full-length Arc; not shown: His6, N-terminal, cleaved; MBP, N-terminal, cleaved

[5] = target: the molecule itself; test: as above

Binder | dH-App (Arc-NL saturated with P1) [2] | Kd [3] | dH [3] | also measured
B1 |  |  |  | Kd [1]: 5310 nM; dH [1]: -14.9 kcal/mol
B2 | -12 kcal/mol | 0.99 nM | -23.2 kcal/mol | stoichiometry Arc:E5:C11 of the ternary complex [4]: 1 E5 per Arc chain (2 Arc : 2 E5 : 2 C11); stoichiometry N [4]: 1 E5 per Arc chain (2 E5 : 2 Arc)
B3 | -10.3 kcal/mol | 1.14 nM | -23.5 kcal/mol | 
B4 |  |  |  | stoichiometry N [5]: 2
